{"source": "the supplement of paper PMC7877785", "assay": "self-splicing fitness, log relative to wild type (ln ratio); higher = more splicing; Tetrahymena group I intron in knt gene, E. coli kanamycin selection, DiMSum; sequences stand for … in CUCUCU…GGAGGGAAAAGUUAUCAGGCAUGCACCUGGUAGCUAGUCUUUAAACCAAUAGAUUGCAUCGGUUUAAAAGGCAAGACCGUCAAAUUGCGGGAAAGGGGUCAACAGCCGUUCAGUACCAAGUCUCAGGGGAAACUUUGAGAUGGCCUUGCAAAGGGUAUGGUAAUAAGCUGACGGACAUGGUCCUAACCACGCAGCCAAGUCCUAAGUCAACAGAUCUUCUGUUGAUAUGGAUGCAGUUCACAGACUAAAUGUCGGUCGGGGAAGAUGUAUUCUUCUCAUAAGAUAUAGUCGGACCUCUCCUUAAUGGGAGCUAGCGGAUGAAGUGAUGCAACACUGGAGCCGCUGGGAACUAAUUUGUAUGCGAAAGUAUAUUGAUUAGUUUUGGAGUACUCGUGGUCG", "in_short": "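DiMSum derived fitness as the error-weighted combination of fold changes across replicates, kanamycin versus no kanamycin, normalised to wild type. E. coli BL21(DE3) held the library, which randomised all eight P1ex-region intron nucleotides within the knt kanamycin-resistance gene on pET-22b(+). Six replicate transformations grew overnight at 37°C or 30°C on LB agar with or without 25 μg/mL kanamycin, also containing 100 μg/mL carbenicillin, 50 μM IPTG and 0.2% rhamnose, and pooled colonies were amplicon-sequenced on an Illumina HiSeq 2500.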", "note": "± gives the uncertainty stated by the source."}
{"sequence": "GUAUAGCAAUAUUACGUAGC", "values": [{"measurement": "self-splicing fitness (ln)", "setting": "30 °C", "value": "-3.22 ± 0.19"}, {"measurement": "self-splicing fitness (ln)", "setting": "37 °C", "value": "-1.46 ± 0.14"}]}
{"sequence": "GUAUAGCAAUAUUACGUCGA", "values": [{"measurement": "self-splicing fitness (ln)", "setting": "30 °C", "value": "-2.2 ± 0.29"}, {"measurement": "self-splicing fitness (ln)", "setting": "37 °C", "value": "-1.03 ± 0.2"}]}
{"sequence": "GUAUAGCAAUAUUACGUCGG", "values": [{"measurement": "self-splicing fitness (ln)", "setting": "30 °C", "value": "-3.48 ± 0.26"}, {"measurement": "self-splicing fitness (ln)", "setting": "37 °C", "value": "-1.31 ± 0.22"}]}
{"sequence": "GUAUAGCAAUAUUACGUCUG", "values": [{"measurement": "self-splicing fitness (ln)", "setting": "30 °C", "value": "-3.17 ± 0.17"}, {"measurement": "self-splicing fitness (ln)", "setting": "37 °C", "value": "-1.08 ± 0.14"}]}
{"sequence": "GUAUAGCAAUAUUACGUUAC", "values": [{"measurement": "self-splicing fitness (ln)", "setting": "30 °C", "value": "-3.43 ± 0.41"}]}
{"sequence": "GUAUAGCAAUAUUACGUUCU", "values": [{"measurement": "self-splicing fitness (ln)", "setting": "30 °C", "value": "-2.27 ± 0.13"}, {"measurement": "self-splicing fitness (ln)", "setting": "37 °C", "value": "-0.863 ± 0.13"}]}
{"sequence": "GUCAAGCAAUAUUACGAAUC", "values": [{"measurement": "self-splicing fitness (ln)", "setting": "30 °C", "value": "-2.16 ± 0.11"}, {"measurement": "self-splicing fitness (ln)", "setting": "37 °C", "value": "-0.596 ± 0.12"}]}
{"sequence": "GUCAAGCAAUAUUACGAAUG", "values": [{"measurement": "self-splicing fitness (ln)", "setting": "30 °C", "value": "-4.11 ± 0.22"}, {"measurement": "self-splicing fitness (ln)", "setting": "37 °C", "value": "-1.18 ± 0.1"}]}
{"sequence": "GUCAAGCAAUAUUACGACAA", "values": [{"measurement": "self-splicing fitness (ln)", "setting": "30 °C", "value": "-3.81 ± 0.4"}, {"measurement": "self-splicing fitness (ln)", "setting": "37 °C", "value": "-2.58 ± 0.27"}]}
{"sequence": "GUCAAGCAAUAUUACGACAC", "values": [{"measurement": "self-splicing fitness (ln)", "setting": "30 °C", "value": "-0.691 ± 0.12"}, {"measurement": "self-splicing fitness (ln)", "setting": "37 °C", "value": "-0.114 ± 0.14"}]}
{"sequence": "GUCAAGCAAUAUUACGACGA", "values": [{"measurement": "self-splicing fitness (ln)", "setting": "30 °C", "value": "-3.52 ± 0.29"}, {"measurement": "self-splicing fitness (ln)", "setting": "37 °C", "value": "-1.88 ± 0.18"}]}
{"sequence": "GUCAAGCAAUAUUACGACUC", "values": [{"measurement": "self-splicing fitness (ln)", "setting": "30 °C", "value": "-1.73 ± 0.15"}, {"measurement": "self-splicing fitness (ln)", "setting": "37 °C", "value": "-0.881 ± 0.15"}]}
{"sequence": "GUCAAGCAAUAUUACGACUU", "values": [{"measurement": "self-splicing fitness (ln)", "setting": "30 °C", "value": "-3.18 ± 0.099"}, {"measurement": "self-splicing fitness (ln)", "setting": "37 °C", "value": "-1.86 ± 0.1"}]}
{"sequence": "GUCAAGCAAUAUUACGAGGG", "values": [{"measurement": "self-splicing fitness (ln)", "setting": "30 °C", "value": "-4.08 ± 0.42"}, {"measurement": "self-splicing fitness (ln)", "setting": "37 °C", "value": "-3.38 ± 0.3"}]}
{"sequence": "GUCAAGCAAUAUUACGAUCC", "values": [{"measurement": "self-splicing fitness (ln)", "setting": "30 °C", "value": "-1.48 ± 0.18"}, {"measurement": "self-splicing fitness (ln)", "setting": "37 °C", "value": "-0.693 ± 0.21"}]}
{"sequence": "GUCAAGCAAUAUUACGAUUA", "values": [{"measurement": "self-splicing fitness (ln)", "setting": "30 °C", "value": "-1.04 ± 0.1"}, {"measurement": "self-splicing fitness (ln)", "setting": "37 °C", "value": "-0.259 ± 0.068"}]}
{"sequence": "GUCAAGCAAUAUUACGCACC", "values": [{"measurement": "self-splicing fitness (ln)", "setting": "37 °C", "value": "-0.99 ± 0.47"}]}
{"sequence": "GUCAAGCAAUAUUACGCAGC", "values": [{"measurement": "self-splicing fitness (ln)", "setting": "37 °C", "value": "-3.49 ± 0.35"}]}
{"sequence": "GUCAAGCAAUAUUACGCCAG", "values": [{"measurement": "self-splicing fitness (ln)", "setting": "30 °C", "value": "-4.54 ± 0.28"}, {"measurement": "self-splicing fitness (ln)", "setting": "37 °C", "value": "-3.95 ± 0.33"}]}
{"sequence": "GUCAAGCAAUAUUACGCCUA", "values": [{"measurement": "self-splicing fitness (ln)", "setting": "30 °C", "value": "-0.294 ± 0.12"}, {"measurement": "self-splicing fitness (ln)", "setting": "37 °C", "value": "0.0798 ± 0.093"}]}
{"sequence": "GUCAAGCAAUAUUACGCUGG", "values": [{"measurement": "self-splicing fitness (ln)", "setting": "30 °C", "value": "-4.08 ± 0.28"}, {"measurement": "self-splicing fitness (ln)", "setting": "37 °C", "value": "-3.72 ± 0.29"}]}
{"sequence": "GUCAAGCAAUAUUACGCUUG", "values": [{"measurement": "self-splicing fitness (ln)", "setting": "30 °C", "value": "-4.27 ± 0.36"}, {"measurement": "self-splicing fitness (ln)", "setting": "37 °C", "value": "-2.06 ± 0.23"}]}
{"sequence": "GUCAAGCAAUAUUACGGAAA", "values": [{"measurement": "self-splicing fitness (ln)", "setting": "30 °C", "value": "-2.28 ± 0.14"}, {"measurement": "self-splicing fitness (ln)", "setting": "37 °C", "value": "-1.72 ± 0.12"}]}
{"sequence": "GUCAAGCAAUAUUACGGCAG", "values": [{"measurement": "self-splicing fitness (ln)", "setting": "37 °C", "value": "-2.86 ± 0.29"}]}
{"sequence": "GUCAAGCAAUAUUACGGGAG", "values": [{"measurement": "self-splicing fitness (ln)", "setting": "30 °C", "value": "-3.23 ± 0.1"}, {"measurement": "self-splicing fitness (ln)", "setting": "37 °C", "value": "-1.07 ± 0.081"}]}
{"sequence": "GUCAAGCAAUAUUACGGUCG", "values": [{"measurement": "self-splicing fitness (ln)", "setting": "30 °C", "value": "-3.23 ± 0.14"}, {"measurement": "self-splicing fitness (ln)", "setting": "37 °C", "value": "-1.26 ± 0.13"}]}
{"sequence": "GUCAAGCAAUAUUACGUACA", "values": [{"measurement": "self-splicing fitness (ln)", "setting": "30 °C", "value": "-3.13 ± 0.14"}, {"measurement": "self-splicing fitness (ln)", "setting": "37 °C", "value": "-1.73 ± 0.098"}]}
{"sequence": "GUCAAGCAAUAUUACGUCGA", "values": [{"measurement": "self-splicing fitness (ln)", "setting": "30 °C", "value": "-3.6 ± 0.42"}, {"measurement": "self-splicing fitness (ln)", "setting": "37 °C", "value": "-4.19 ± 0.46"}]}
{"sequence": "GUCAAGCAAUAUUACGUCUA", "values": [{"measurement": "self-splicing fitness (ln)", "setting": "30 °C", "value": "-1.94 ± 0.1"}, {"measurement": "self-splicing fitness (ln)", "setting": "37 °C", "value": "-0.679 ± 0.079"}]}
{"sequence": "GUCAAGCAAUAUUACGUGCA", "values": [{"measurement": "self-splicing fitness (ln)", "setting": "30 °C", "value": "-1.58 ± 0.11"}, {"measurement": "self-splicing fitness (ln)", "setting": "37 °C", "value": "-0.243 ± 0.1"}]}
{"sequence": "GUCAAGCAAUAUUACGUUAC", "values": [{"measurement": "self-splicing fitness (ln)", "setting": "30 °C", "value": "-3.02 ± 0.17"}, {"measurement": "self-splicing fitness (ln)", "setting": "37 °C", "value": "-2.96 ± 0.17"}]}
{"sequence": "GUCAAGCAAUAUUACGUUGG", "values": [{"measurement": "self-splicing fitness (ln)", "setting": "30 °C", "value": "-4.53 ± 0.31"}, {"measurement": "self-splicing fitness (ln)", "setting": "37 °C", "value": "-3.51 ± 0.3"}]}
{"sequence": "GUCAAGCAAUAUUACGUUGU", "values": [{"measurement": "self-splicing fitness (ln)", "setting": "30 °C", "value": "-3.69 ± 0.13"}, {"measurement": "self-splicing fitness (ln)", "setting": "37 °C", "value": "-2.76 ± 0.13"}]}
{"sequence": "GUCAAGCAAUAUUACGUUUU", "values": [{"measurement": "self-splicing fitness (ln)", "setting": "30 °C", "value": "-2.8 ± 0.11"}, {"measurement": "self-splicing fitness (ln)", "setting": "37 °C", "value": "-0.976 ± 0.1"}]}
{"sequence": "GUCCAGCAAUAUUACGAAAG", "values": [{"measurement": "self-splicing fitness (ln)", "setting": "30 °C", "value": "-3.37 ± 0.21"}, {"measurement": "self-splicing fitness (ln)", "setting": "37 °C", "value": "-0.318 ± 0.17"}]}
{"sequence": "GUCCAGCAAUAUUACGAAAU", "values": [{"measurement": "self-splicing fitness (ln)", "setting": "30 °C", "value": "-0.587 ± 0.1"}, {"measurement": "self-splicing fitness (ln)", "setting": "37 °C", "value": "-0.0182 ± 0.12"}]}
{"sequence": "GUCCAGCAAUAUUACGAAGU", "values": [{"measurement": "self-splicing fitness (ln)", "setting": "30 °C", "value": "-0.504 ± 0.074"}, {"measurement": "self-splicing fitness (ln)", "setting": "37 °C", "value": "0.0552 ± 0.11"}]}
{"sequence": "GUCCAGCAAUAUUACGACUC", "values": [{"measurement": "self-splicing fitness (ln)", "setting": "30 °C", "value": "-0.116 ± 0.087"}, {"measurement": "self-splicing fitness (ln)", "setting": "37 °C", "value": "-0.335 ± 0.1"}]}
